These results are taken from publication PMC2760139.

Series [1] relates to DENV2 capsid protein C, mature WT (Dengue virus type 2 (cDNA clone GenBank U87411)). Kind of series: filter binding.
Series [2] concerns the target mature dengue virus type 2 capsid (C) protein with substitutions L50S-L54S, recombinant (dengue virus type 2) (UniProt P29990). Description: SEC-MALS.
In series [3] the target is mature dengue virus type 2 capsid (C) protein, wild type, recombinant (dengue virus type 2) (UniProt P29990). Kind of series: SEC-MALS. On the technique in general: Size exclusion chromatography separates by hydrodynamic size, large species first.

As a reminder, the Kd is the free concentration of one partner at which half of the binding sites on the other are occupied at equilibrium, for simple one-to-one binding. A higher Kd goes with weaker binding. In general, stoichiometry N refers to the number of molecules, sites or subunits per partner or assembly.

Turning to “DENV 5'UTR RNA probe (viral 5' terminal region nt 1-160)”, the Kd in series [1] worked out at 22 nM.
As for “mature dengue virus type 2 capsid (C) protein with substitutions L50S-L54S, recombinant (from UniProt P29990 1-100) (natural protein)”, the stoichiometry N in series [2] was 2.
As to “mature dengue virus type 2 capsid (C) protein, wild type, recombinant (from UniProt P29990) (natural protein)”, in series [3], the stoichiometry N was determined as 2.
